Where two headings read alike, the source gives them in different places. Values belong to the molecule of their own block, whether it stands above or below them. Square brackets hold non-standard residues; d marks the D form. * marks the point of attachment. Biotin = O=C1N[C@H]2[C@H](CS[C@H]2CCCCC(=O)*)N1; d(pT) = C[C@H](OP(=O)(O)O)[C@@H](N)C(=O)O; pT = C[C@@H](OP(=O)(O)O)[C@H](N)C(=O)O; 2Nal = N[C@@H](Cc1ccc2ccccc2c1)C(=O)O; Bta = N[C@@H](Cc1csc2ccccc12)C(=O)O; Pip = O=C(O)[C@@H]1CCCCN1; Bth = benzothiophene
Columns and labels:
full-length hPin1 [1] = biological target: T1, full-length hPin1 (human, UniProt Q13526 1-163); test: comparison of Kd values
T1 sequence (Q13526 whole entry): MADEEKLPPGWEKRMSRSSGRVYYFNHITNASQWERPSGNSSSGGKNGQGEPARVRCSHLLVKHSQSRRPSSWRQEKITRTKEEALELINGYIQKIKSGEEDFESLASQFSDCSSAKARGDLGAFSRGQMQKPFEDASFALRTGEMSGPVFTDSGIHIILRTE

full-length hPin1 [2] = biological target: T1, full-length hPin1; test: method not stated there (ITC value of paragraph 223 rounded); D isomer
full-length hPin1 [3] = biological target: T1, full-length hPin1; test: isothermal titration calorimetry, single binding site model
full-length hPin1 [4] = biological target: T1, full-length hPin1; test: isothermal titration calorimetry, 10 °C, full-length hPin1 in the cell
X. laevis embryos = test: Microinjection in X. laevis embryos, cell division; type: in vivo; conditions: microinjection at stage 2
Procedure: FIG. 8 depicts the blocking of cell division by the injection of peptide 17 in X. laevis embryos. 50-300 pmol of peptide 17 or 300 pmol of its nonphosphorylated derivative (control) dissolved in 10 nl PBS buffer were microinjected in the animal half of X. laevis embryos at stage 2 of development. Embryos with large and/or apoptotic appearing cells surrounded by normally developing cells were counted after further 5 hours (stage 8-9) of development. […] Each value is the average of four independent experiments.
FIGS. 9A-F depicts phenotypic analysis of X. laevis embryos after injection of peptide 17. 300 pmol of peptide 17 or its nonphosphorylated derivative dissolved in 10 nl PBS buffer were injected in the animal half of X. laevis embryos at stage 2 of development. 1.5 hour at stage 6 (A), 2.5 hours at stage 7 (B) and 4-5 hours at stage 8-9 (C, D) after injection enlarged cells became visible. Cells that are blocked in cell division are marked with a white arrow. Controls of uninjected embryos of stage 8-9 and embryos that were injected with 300 pmol of the nonphosphorylated derivative of peptide 17 are shown in panels E and F. The site where the nonphosphorylated derivative of peptide 17 was injected is marked with a white arrow (F).
FIGS. 10A-D depict the rescue of peptide 17 caused cell division block in X. laevis embryos by hPin1 (A, B) and different hPin1 variants (C, D). FIG. 10A depicts the time course of V5-tagged hPin1 expression was analyzed by preparation of X. laevis embryo lysate 1, 2 and 4 hours after injection of 1, 2 or 3 ng of V5-tagged hPin1 mRNA. In every case, the injected volume was 10 nl. Lysates were prepared in lysis buffer containing phosphatase and protease inhibitors. Samples were separated by SDS PAGE followed by western blotting. Endogenous XlPin1 and V5-tagged hPin1 were detected using an anti hPin1 PPIase domain antiserum as primary antibody followed by incubation with a horseradish peroxidase-conjugated secondary antibody. Visualization was done using the SuperSignal® substrate. […] In every case, the whole volume of injection was 10 nl. The indicated amount of the mRNA was injected in the animal half of 30 embryos at stage 2 of development. Embryos with large and/or apoptotic appearing cells surrounded by normally developed cells were counted after additional 5 hours of development (stage 8-9). […] Each percentage of vital embryos shown in the figure is the average of four independent experiments. FIG. 10C indicates the expression of V5-tagged hPin1 variants was evaluated by preparation of embryo lysate after 4 hours of injection of the respective mRNA (2 ng) in X. laevis embryos. Lysates were prepared in lysis buffer containing phosphatase and protease inhibitors. Samples were separated using SDS PAGE followed by western blot analysis. Endogenous XlPin1 and injected V5-tagged hPin1 variants were detected using an anti hPin1 PPIase domain antiserum as primary antibody and a horseradish peroxidase-conjugated secondary antibody. Visualization was done by a chemiluminescent reaction using the SuperSignal® substrate (Pierce). FIG. 10D depicts 250 pmol of peptide 17 was coinjected with 2 ng mRNA of the indicated V5-tagged hPin1 variant (whole volume 10 nl) in the animal half of 30 X. laevis embryos at stage 2 of development. Results were analyzed as described for FIG. 10B. Each percentage of vital embryos shown in the figure is the average of four independent experiments.
Microinjection was done into the animal half of X. laevis embryos at stage 2 of development. In every case, the injection volume was 10 nl. Immunofluorescence studies of frozen X. laevis embryo sections were performed as previously described (Julius et al., 2000). Ten-micrometer cryosections of stage 8 embryos were labelled using a monoclonal anti hPin1 antibody (mouse) followed by incubation with Alexa Fluor 546™-conjugated anti mouse antibody of goat serum (Molecular Probes). […]

hPar14 = hPar14 (Homo sapiens, UniProt Q9Y237); test: Protease coupled PPIase assay, hPar14; type: biochemical; conditions: up to 50 μM
Sequence of hPar14 (Q9Y237 whole entry): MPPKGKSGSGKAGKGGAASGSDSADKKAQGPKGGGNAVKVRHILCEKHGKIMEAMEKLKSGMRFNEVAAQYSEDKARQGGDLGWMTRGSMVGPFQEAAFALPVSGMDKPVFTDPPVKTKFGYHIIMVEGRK
Procedure: FIG. 6 depicts the influence of peptide 17 on the hPar14 PPIase activity. The apparent first order rate constant kobs determined for the cis to trans isomerization of the arginyl-prolyl peptide bond of the substrate Suc-Ala-Arg-Pro-Phe-NH-Np (SEQ ID NO: 3) was measured using the protease coupled PPIase assay. α-Chymotrypsin was used as isomer specific protease. As control, the nonphosphorylated derivative of peptide 17 was used.
PPIase activities were monitored on a Hewlett-Packard 8452A diode array spectrophotometer according to Fischer et al., 1984 and Zhang et al., 2002. The hPar14 PPIase activity was measured with Suc-Ala-Arg-Pro-Phe-NH-Np (SEQ ID NO: 3) (final concentration 75 μM) as substrate and α-chymotrypsin (final concentration 60 μM) as isomer specific protease. PPIase activity of hCyp 18 and FKBP12 were measured using Suc-Ala-Ala-Pro-Phe-NH-Np (SEQ ID NO: 7) as substrate (final concentration 16 μM) and α-chymotrypsin (final concentration 60 μM) as isomer specific protease. PPIase activity of hPin1 was measured with Ac-Ala-Ala-Ser(PO3H2)-Pro-Arg-NH-Np (SEQ ID NO: 4) (final concentration 10 μM) as substrate and trypsin (final concentration 60 μM) as isomer specific protease. Final concentrations of the PPIases were 1.7 μM for hPar14, 4 nM for hPin1, 7 nM for FKBP12 and 9.7 nM for hCyp18. […] Measurements were monitored at 390 nm. […]

[5] = biological target: T2, interaction of MPM-2 antigens with GST-hPin1 (Homo sapiens, UniProt Q13526); test: MPM-2 competition assay; type: binding; conditions: mitotic HeLa cell lysate, 8 μM GST-hPin1
T2 construct: made in house
T2 sequence (Q13526 whole entry): as the sequence (Q13526 whole entry) above
Procedure: FIG. 7 depicts the influence of peptide 17 on the interaction of MPM-2 antigens with hPin1. The indicated concentration of peptide 17 or its nonphosphorylated derivative (control) was incubated with an 8 μM solution of GST-hPin1. After addition of mitotic HeLa cell lysate, GST-hPin1 was extracted from the respective mixture using glutathione sepharose. Samples were analyzed regarding extracted GST-hPin1 and coprecipitated MPM-2 antigenes by SDS PAGE and western blot analysis. Untreated lysate of mitotic HeLa cells was loaded on the first line (extract). MPM-2 antigenes were detected using the monoclonal anti MPM-2 antibody (mouse). GST-hPin1 was detected using an anti hPin1 PPIase domain antiserum (rabbit). Horseradish peroxidase-conjugated antibodies from mouse or rabbit were used as secondary antibodies. […]
1.3 mM of Peptide 17 or its nonphosphorylated derivative were incubated with GST-hPin1 (8 μM) for 2 hours at 4° C. […] Following SDS-PAGE, the samples were analyzed by western blot analysis. GST-hPin1 and coextracted MPM-2 antigens were detected using an anti hPin1 PPIase domain antiserum (rabbit) or monoclonal anti MPM-2 antibody (Upstate Biotechnology) from mouse. […]
MPM-2 antigens are mitotic phosphoproteins that are specifically recognized by the monoclonal antibody MPM-2. […] The coextracted MPM-2 antigenes were detected after SDS PAGE by western blot analysis using the anti MPM-2 antibody. […]

full-length hPin1 [6] = biological target: T1, full-length hPin1; test: inhibition of PPIase activity
full-length hPin1 [7] = biological target: T1, full-length hPin1; test: cell-based or functional assay
full-length hPin1 [8] = biological target: T1, full-length hPin1; test: cell-based or functional assay; remark: listed apart in the source
full-length hPin1 [9] = biological target: T1, full-length hPin1; test: cell-based or functional assay; remark: listed apart in the source

Molecule: nonphosphorylated derivative of peptide 17: nonphosphorylated derivative of peptide 17, used as control (Ac-F[dT][Pip][2Nal]Q-NH2) [reference compound]
effect on development of the embryos (X. laevis embryos): no visible effect | inhibition of hPar14 PPIase activity (hPar14): No inhibition | influence on interaction of MPM-2 antigenes with GST-hPin1 [5]: had no effect

B2: peptide 4 (peptide)
peptide: Ac-K(Biotin)AA[Bta][pT]P[2Nal]Q-NH2
fold decrease of inhibition of hPin1 PPIase activity against peptide 15 (full-length hPin1 [7]): 100 fold | IC50(µM), blockade of the PPIase activity of hPin1, protease free PPIase assay (full-length hPin1 [8]): 20 µM

B3: peptide 15, Ac-Lys(N^ε-biotinoyl)-Ala-Ala-Bth-Thr(PO3H2)Pip-Nal-Gln-NH2 (peptide)
peptide: Ac-K(Biotin)AA[Bth][pT][Pip]AQ-NH2
modifications: not fully specified (residue 7); printed as Ac-Lys(N^ε-biotinoyl)-Ala-Ala-Bth-Thr(PO3H2)Pip-Nal-Gln-NH2
IC50(µM), blockade of the PPIase activity of hPin1, protease free PPIase assay (full-length hPin1 [9]): 0.21 µM

Further lines, results first:

fold tighter binding against Ac-Phe-L-Thr(PO3H2)-Pip-Nal-Gln-NH2 (full-length hPin1 [1]): 30 fold | Kd (full-length hPin1 [2]): 19 nM | Ka (full-length hPin1 [3]): 5.18e+07 M⁻¹ | n (binding stoichiometry) (full-length hPin1 [3]): 0.96 | binding enthalpy ΔHbind (full-length hPin1 [4]): -4.56 kcal/mol | binding entropy TΔSbind (full-length hPin1 [4]): 5.43 kcal/mol
Molecule: peptide 17, Ac-Phe-D-Thr(PO3H2)-Pip-Nal-Gln-NH2

fold decrease of Ki against peptide 15 (full-length hPin1 [6]): 150 fold
B1: peptide 16, Ac-Lys(N^ε-biotinoyl)-Ala-Ala-Bth-D-Thr(PO3H2)-Pip-Nal-Gln-NH2 (peptide)
peptide: Ac-K(Biotin)AA[Bta][d(pT)][Pip][2Nal]Q-NH2

Source: US8258099B2, “Pin1-modulating compounds and methods of use thereof” (Max-Planck-Gesellschaft zur Foerderung der Wissenschaften …, priority 2004, dated 2012)
